Assay results reported in IntAct's records for PubMed 27615052.

B1: E3 ubiquitin-protein ligase LRSAM1 (Homo sapiens), Q6UWE0 (parent)
chain: MPLFFRKRKPSEEARKRLEYQMCLAKEAGADDILDISKCELSEIPFGAFATCKVLQKKVLIVHTNHLTSLLPKSCSLLSLATIKVLDLHDNQLTALPDDLGQLTALQVLNVERNQLMQLPRSIGNLTQLQTLNVKDNKLKELPDTVGELRSLRTLNISGNEIQRLPQMLAHVRTLEMLSLDASAMVYPPREVCGAGTAAILQFLCKESGLEYYPPSQYLLPILEQDGIENSRDSPDGPTDRFSREELEWQNRFSDYEKRKEQKMLEKLEFERRLELGQREHTQLLQQSSSQKDEILQTVKEEQSRLEQGLSEHQRHLNAERQRLQEQLKQTEQNISSRIQKLLQDNQRQKKSSEILKSLENERIRMEQLMSITQEETESLRRRDVASAMQQMLTESCKNRLIQMAYESQRQNLVQQACSSMAEMDERFQQILSWQQMDQNKAISQILQESAMQKAAFEALQVKKDLMHRQIRSQIKLIETELLQLTQLELKRKSLDTESLQEMISEQRWALSSLLQQLLKEKQQREEELREILTELEAKSETRQENYWLIQYQRLLNQKPLSLKLQEEGMERQLVALLEELSAEHYLPIFAHHRLSLDLLSQMSPGDLAKVGVSEAGLQHEILRRVQELLDAARIQPELKPPMGEVVTPTAPQEPPESVRPSAPPAELEVQASECVVCLEREAQMIFLNCGHVCCCQQCCQPLRTCPLCRQDIAQRLRIYHSS

Variants of: B1
Conditions: with G3BP1, Q13283
Sequence of G3BP1, Q13283 (Q13283 whole entry, looked up): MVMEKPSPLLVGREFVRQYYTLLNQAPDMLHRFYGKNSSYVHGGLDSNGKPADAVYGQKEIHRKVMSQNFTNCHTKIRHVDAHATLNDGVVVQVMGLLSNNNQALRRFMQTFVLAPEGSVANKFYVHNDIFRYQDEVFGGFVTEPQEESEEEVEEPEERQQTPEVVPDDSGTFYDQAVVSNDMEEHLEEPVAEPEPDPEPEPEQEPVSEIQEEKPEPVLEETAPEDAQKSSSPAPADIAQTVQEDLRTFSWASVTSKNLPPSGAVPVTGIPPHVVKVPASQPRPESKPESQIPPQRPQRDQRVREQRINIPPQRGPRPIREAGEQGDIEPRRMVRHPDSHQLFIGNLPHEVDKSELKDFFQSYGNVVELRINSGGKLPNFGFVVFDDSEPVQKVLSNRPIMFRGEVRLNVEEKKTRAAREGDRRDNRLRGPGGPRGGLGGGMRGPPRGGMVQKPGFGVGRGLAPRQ

effect of a mutation on the interaction | Variant
disrupting interaction strength | C694R

Variants of: B1
Conditions: with fus_mouse Fus

effect of a mutation on the interaction | Variant
disrupting interaction strength | C694R
